This is an account of results in patent US20130158098A1, “Alkenyl Substituted Cycloaliphatic Compounds as Chemical Inducers of Proximity” (priority 2010, published 2013).

The test addresses VP16-PYLcs (VP16 transactivation domain fused to PYL1 aa 33-209) (herpes simplex virus; Arabidopsis thaliana) (UniProt Q8VZS8). Nature of the test: cell-based or functional assay.

VP16-PYLcs (VP16 transactivation domain fused to PYL1 aa 33-209) (herpes simplex virus; Arabidopsis thaliana), sequence (Q8VZS8 33-209 limits assumed): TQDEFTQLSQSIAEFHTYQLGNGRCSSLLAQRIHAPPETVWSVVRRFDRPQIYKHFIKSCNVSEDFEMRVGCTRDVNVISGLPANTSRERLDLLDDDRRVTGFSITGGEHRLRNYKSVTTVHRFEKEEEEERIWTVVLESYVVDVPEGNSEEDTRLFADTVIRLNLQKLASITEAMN

In turn, “Gal4 DBD-ABIcs, wild type (Gal4 DNA binding domain fused to ABI1 aa 126-423) (from UniProt P04386 1-147)” had a luciferase production (UAS-luciferase reporter, murine ES, NIH 3T3 and HEK 293T cells) of 1000 fold.
